Data on four molecules can be found in US20140221282A1, “LONG DURATION DUAL HORMONE CONJUGATES” (priority 2011, published 2014).

Ends that are not written are not given here. Y‑shaped mPEG40KD = Y-shaped methoxy-PEG of 40 kDa attached to the Lys side chain; mPEG40KD = methoxy-PEG of 40 kDa

B1: [K^26(Y-shaped-mPEG40KD)]-Cmpd 53 (peptide)
peptide: KCNTATCATQRLANFLVRSSNNLGPK(Y‑shaped mPEG40KD)LPPTNVGSNTY-NH2
modifications: ends and bridges not checked
B2: [des-Lys^1]-Cmpd 49 (peptide)
peptide: CNTATCATQRLANFLVRSSNNLGPVLPPTNVGSNTY-NH2
modifications: ends and bridges not checked
B3: [K^26(mPEG40KD)]-Cmpd 53 (peptide)
peptide: KCNTATCATQRLANFLVRSSNNLGPK(mPEG40KD)LPPTNVGSNTY-NH2
modifications: ends and bridges not checked
B4: mPEG40KD-Cmpd 50 (peptide)
peptide: mPEG40KD-CNTATCATQRLANFLVRSSNNLGPVLPPTNVGSNTY-NH2
modifications: ends and bridges not checked

For this assay, the target named is amylin receptor of rat nucleus accumbens membranes (rat). The experiment in a line: competition with 125I-rat amylin, rat nucleus accumbens membranes.
amylin receptor of rat nucleus accumbens membranes (rat), sequence (P32214 other isoform, or with tags, fused parts or gaps, chain 1 of 2): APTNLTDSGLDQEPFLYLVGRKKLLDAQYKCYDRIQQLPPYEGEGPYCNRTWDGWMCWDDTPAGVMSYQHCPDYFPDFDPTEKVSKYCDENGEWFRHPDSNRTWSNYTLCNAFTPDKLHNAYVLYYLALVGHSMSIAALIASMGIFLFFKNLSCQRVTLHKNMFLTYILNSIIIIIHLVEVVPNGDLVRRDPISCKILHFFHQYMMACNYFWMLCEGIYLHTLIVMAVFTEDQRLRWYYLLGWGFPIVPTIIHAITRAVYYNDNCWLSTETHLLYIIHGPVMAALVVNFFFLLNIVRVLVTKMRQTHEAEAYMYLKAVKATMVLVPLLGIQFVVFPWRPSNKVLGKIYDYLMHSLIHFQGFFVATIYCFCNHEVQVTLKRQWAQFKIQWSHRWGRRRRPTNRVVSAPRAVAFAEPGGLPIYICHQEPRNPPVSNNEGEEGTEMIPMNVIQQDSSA
amylin receptor of rat nucleus accumbens membranes (rat), sequence (Q9JJ74 27-148, chain 2 of 2, further chain): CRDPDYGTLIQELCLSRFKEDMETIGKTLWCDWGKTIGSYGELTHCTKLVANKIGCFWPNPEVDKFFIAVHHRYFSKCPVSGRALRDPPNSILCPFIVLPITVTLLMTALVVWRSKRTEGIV
Consider B1, for which the IC50 turned out to be 470 nM. The value for B2 was 0.42 nM. The value for B3 was 66 nM; that for B4 was 78 nM.

The IC50 is the midpoint of a concentration-inhibition curve. Read a high IC50 as lower potency.
